Patent US20260242735A1 (UNIVERSIT T BASEL, published 2026)

Tests used:
Test in all cases: flow cytometry on transfected cells, IgG
human CD33 F43L = human CD33 F43L (human, UniProt P20138 18-364)
Procedure: (§1) An alanine scan on human CD33 was performed to the determine the residues on CD33 that are involved in binding to the antibodies investigated. […] Briefly, a mutation library of CD33 was created by high-throughput, site-directed mutagenesis. Each residue was individually mutated to alanine, with alanine codons mutated to serine. The mutant library was arrayed in 384-well microplates and transiently transfected into HEK293-T. Following transfection, cells were incubated with the indicated antibodies (IgG or Fab) at concentrations pre-determined using an independent immunofluorescence titration curve on wild type CD33. […] Binding of each antibody to each mutant clone was determined in duplicates. For each point, background fluorescence was subtracted from the raw data, which were then normalized to antibody reactivity with wild type CD33.
(§2) Antibodies were screened for binding to the human CD33 variants in IgG format. […] For each mutation, background fluorescence was subtracted from the raw data, which were then normalized to antibody reactivity with wild-type CD33.

human CD33 F44S = human CD33 F44S (human, UniProt P20138 18-364)
Procedure: as §1, §2

human CD33 F44L = human CD33 F44L (human, UniProt P20138 18-364)
Procedure: as §1, §2

human CD33 F44P = human CD33 F44P (human, UniProt P20138 18-364)
Procedure: as §1, §2

human CD33 F44Q = human CD33 F44Q (human, UniProt P20138 18-364)
Procedure: as §1, §2

human CD33 F44H = human CD33 F44H (human, UniProt P20138 18-364)
Procedure: as §1, §2

human CD33 F44D = human CD33 F44D (human, UniProt P20138 18-364)
Procedure: as §1, §2

human CD33 F44T = human CD33 F44T (human, UniProt P20138 18-364)
Procedure: as §1, §2

human CD33 H45Y = human CD33 H45Y (human, UniProt P20138 18-364)
Procedure: as §1, §2

human CD33 P46F = human CD33 P46F (human, UniProt P20138 18-364)
Procedure: as §1, §2

human CD33 P46R = human CD33 P46R (human, UniProt P20138 18-364)
Procedure: as §1, §2

human CD33 P46Y = human CD33 P46Y (human, UniProt P20138 18-364)
Procedure: as §1, §2

human CD33 P46H = human CD33 P46H (human, UniProt P20138 18-364)
Procedure: as §1, §2

human CD33 I47G = human CD33 I47G (human, UniProt P20138 18-364)
Procedure: as §1, §2

human CD33 I47T = human CD33 I47T (human, UniProt P20138 18-364)
Procedure: as §1, §2

human CD33 I47L = human CD33 I47L (human, UniProt P20138 18-364)
Procedure: as §1, §2

human CD33 I47F = human CD33 I47F (human, UniProt P20138 18-364)
Procedure: as §1, §2

human CD33 I47Y = human CD33 I47Y (human, UniProt P20138 18-364)
Procedure: as §1, §2

human CD33 I47N = human CD33 I47N (human, UniProt P20138 18-364)
Procedure: as §1, §2

human CD33 P48T = human CD33 P48T (human, UniProt P20138 18-364)
Procedure: as §1, §2

human CD33 P48V = human CD33 P48V (human, UniProt P20138 18-364)
Procedure: as §1, §2

human CD33 P48L = human CD33 P48L (human, UniProt P20138 18-364)
Procedure: as §1, §2

human CD33 P48M = human CD33 P48M (human, UniProt P20138 18-364)
Procedure: as §1, §2

human CD33 P48N = human CD33 P48N (human, UniProt P20138 18-364)
Procedure: as §1, §2

human CD33 P48D = human CD33 P48D (human, UniProt P20138 18-364)
Procedure: as §1, §2

human CD33 P48K = human CD33 P48K (human, UniProt P20138 18-364)
Procedure: as §1, §2

human CD33 P48G = human CD33 P48G (human, UniProt P20138 18-364)
Procedure: as §1, §2

human CD33 T42N = human CD33 T42N (human, UniProt P20138 18-364)
Procedure: as §1, §2

human CD33 Y49H = human CD33 Y49H (human, UniProt P20138 18-364)
Procedure: as §1, §2

human CD33 Y49C = human CD33 Y49C (human, UniProt P20138 18-364)
Procedure: as §1, §2

human CD33 Y49I = human CD33 Y49I (human, UniProt P20138 18-364)
Procedure: as §1, §2

human CD33 T42K = human CD33 T42K (human, UniProt P20138 18-364)
Procedure: as §1, §2

human CD33 Y50V = human CD33 Y50V (human, UniProt P20138 18-364)
Procedure: as §1, §2

human CD33 Y50N = human CD33 Y50N (human, UniProt P20138 18-364)
Procedure: as §1, §2

human CD33 Y50Q = human CD33 Y50Q (human, UniProt P20138 18-364)
Procedure: as §1, §2

human CD33 Y50H = human CD33 Y50H (human, UniProt P20138 18-364)
Procedure: as §1, §2

human CD33 Y50D = human CD33 Y50D (human, UniProt P20138 18-364)
Procedure: as §1, §2

human CD33 F43V = human CD33 F43V (human, UniProt P20138 18-364)
human CD33 F43V, sequence (P20138 18-364 F43V limits assumed): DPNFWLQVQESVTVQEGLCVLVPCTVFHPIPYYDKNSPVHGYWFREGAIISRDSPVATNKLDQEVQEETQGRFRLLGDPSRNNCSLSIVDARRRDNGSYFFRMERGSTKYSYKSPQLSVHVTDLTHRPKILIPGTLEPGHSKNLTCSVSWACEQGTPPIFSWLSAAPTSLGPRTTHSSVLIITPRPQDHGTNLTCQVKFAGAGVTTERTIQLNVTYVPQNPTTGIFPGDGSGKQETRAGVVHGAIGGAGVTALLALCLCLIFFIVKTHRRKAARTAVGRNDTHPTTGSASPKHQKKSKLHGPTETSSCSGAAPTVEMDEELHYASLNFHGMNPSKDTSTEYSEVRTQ
Procedure: as §1, §2

human CD33 Y50V, sequence (P20138 18-364 Y50V limits assumed): as the sequence (P20138 18-364 F43V limits assumed) above, with V26F, Y33V counted along it
human CD33 P46F, sequence (P20138 18-364 P46F limits assumed): as the sequence (P20138 18-364 F43V limits assumed) above, with V26F, P29F counted along it
human CD33 P48D, sequence (P20138 18-364 P48D limits assumed): as the sequence (P20138 18-364 F43V limits assumed) above, with V26F, P31D counted along it
human CD33 Y50D, sequence (P20138 18-364 Y50D limits assumed): as the sequence (P20138 18-364 F43V limits assumed) above, with V26F, Y33D counted along it
human CD33 I47F, sequence (P20138 18-364 I47F limits assumed): as the sequence (P20138 18-364 F43V limits assumed) above, with V26F, I30F counted along it
human CD33 Y50N, sequence (P20138 18-364 Y50N limits assumed): as the sequence (P20138 18-364 F43V limits assumed) above, with V26F, Y33N counted along it
human CD33 Y50H, sequence (P20138 18-364 Y50H limits assumed): as the sequence (P20138 18-364 F43V limits assumed) above, with V26F, Y33H counted along it
human CD33 F44T, sequence (P20138 18-364 F44T limits assumed): as the sequence (P20138 18-364 F43V limits assumed) above, with V26F, F27T counted along it
human CD33 F43L, sequence (P20138 18-364 F43L limits assumed): as the sequence (P20138 18-364 F43V limits assumed) above, with V26L counted along it
human CD33 Y49H, sequence (P20138 18-364 Y49H limits assumed): as the sequence (P20138 18-364 F43V limits assumed) above, with V26F, Y32H counted along it
human CD33 P48N, sequence (P20138 18-364 P48N limits assumed): as the sequence (P20138 18-364 F43V limits assumed) above, with V26F, P31N counted along it
human CD33 P48M, sequence (P20138 18-364 P48M limits assumed): as the sequence (P20138 18-364 F43V limits assumed) above, with V26F, P31M counted along it
human CD33 F44D, sequence (P20138 18-364 F44D limits assumed): as the sequence (P20138 18-364 F43V limits assumed) above, with V26F, F27D counted along it

Binder | Mean % WT Binding (human CD33 F43L) [% WT binding] | Mean % WT Binding (human CD33 F44S) [% WT binding] | Mean % WT Binding (human CD33 F44L) [% WT binding] | Mean % WT Binding (human CD33 F44P) [% WT binding] | Mean % WT Binding (human CD33 F44Q) [% WT binding] | Mean % WT Binding (human CD33 F44H) [% WT binding] | Mean % WT Binding (human CD33 F44D) [% WT binding] | Mean % WT Binding (human CD33 F44T) [% WT binding] | Mean % WT Binding (human CD33 H45Y) [% WT binding] | Mean % WT Binding (human CD33 P46F) [% WT binding] | Mean % WT Binding (human CD33 P46R) [% WT binding] | Mean % WT Binding (human CD33 P46Y) [% WT binding] | Mean % WT Binding (human CD33 P46H) [% WT binding] | Mean % WT Binding (human CD33 I47G) [% WT binding] | Mean % WT Binding (human CD33 I47T) [% WT binding] | Mean % WT Binding (human CD33 I47L) [% WT binding] | Mean % WT Binding (human CD33 I47F) [% WT binding] | Mean % WT Binding (human CD33 I47Y) [% WT binding] | Mean % WT Binding (human CD33 I47N) [% WT binding] | Mean % WT Binding (human CD33 P48T) [% WT binding] | other results
Refmab #5 (antibody, human IgG1, V domains shown) VH: QVQLVQSGAEVKKPGASVKVSCKASGYTFTNYDINWVRQAPGQGLEWIGWIYPGDGSTKYNEKFKAKATLTADTSTSTAYMELRSLRSDDTAVYYCASGYEDAMDYWGQGTTVTVSS VL: DIQMTQSPSSLSASVGDRVTINCKASQDINSYLSWFQQKPGKAPKTLIYRANRLVDGVPSRFSGSGSGQDYTLTISSLQPEDFATYYCLQYDEFPLTFGGGTKVEIK | 96.3 | 104 | 109 | 114 | 93.9 | 117 | 111 | 92.4 | 94.2 | 62 | 103 | 48 | 69.8 | 80.9 | 98.4 | 107 | 90.5 | 94.5 | 88 | 91.4 | Mean % WT Binding (human CD33 P48V): 53.5 % WT binding; Mean % WT Binding (human CD33 P48L): 18.9 % WT binding; Mean % WT Binding (human CD33 P48M): 31.4 % WT binding; Mean % WT Binding (human CD33 P48N): 4.4 % WT binding; Mean % WT Binding (human CD33 P48D): 2.1 % WT binding; Mean % WT Binding (human CD33 P48K): 58.7 % WT binding; Mean % WT Binding (human CD33 P48G): 3.5 % WT binding; Mean % WT Binding (human CD33 T42N): 91.1 % WT binding; Mean % WT Binding (human CD33 Y49H): 2.4 % WT binding; Mean % WT Binding (human CD33 Y49C): 0.7 % WT binding; Mean % WT Binding (human CD33 Y49I): 0.5 % WT binding; Mean % WT Binding (human CD33 T42K): 79.5 % WT binding; Mean % WT Binding (human CD33 Y50V): 4.2 % WT binding; Mean % WT Binding (human CD33 Y50N): 3.2 % WT binding; Mean % WT Binding (human CD33 Y50Q): 2.9 % WT binding; Mean % WT Binding (human CD33 Y50H): 7.1 % WT binding; Mean % WT Binding (human CD33 Y50D): 2.5 % WT binding; Mean % WT Binding (human CD33 F43V): 82.2 % WT binding
Refmab #6 (antibody, human IgG1, V domains shown) VH: QVQLQQPGAEVVKPGASVKMSCKASGYTFTSYYIHWIKQTPGQGLEWVGVIYPGNDDISYNQKFQGKATLTADKSSTTAYMQLSSLTSEDSAVYYCAREVRLRYFDVWGQGTTVTVSS VL: EIVLTQSPGSLAVSPGERVTMSCKSSQSVFFSSSQKNYLAWYQQIPGQSPRLLIYWASTRESGVPDRFTGSGSGTDFTLTISSVQPEDLAIYYCHQYLSSRTFGQGTKLEIK | 87.9 | 86.1 | 104 | 88 | 102 | 91.3 | 107 | 93.9 | 84.4 | 92.6 | 103 | 79.9 | 107 | 105 | 97.2 | 99.1 | 105 | 105 | 96.6 | 92.6 | Mean % WT Binding (human CD33 P48V): 105 % WT binding; Mean % WT Binding (human CD33 P48L): 104 % WT binding; Mean % WT Binding (human CD33 P48M): 103 % WT binding; Mean % WT Binding (human CD33 P48N): 98.4 % WT binding; Mean % WT Binding (human CD33 P48D): 115 % WT binding; Mean % WT Binding (human CD33 P48K): 89.4 % WT binding; Mean % WT Binding (human CD33 P48G): 89 % WT binding; Mean % WT Binding (human CD33 T42N): 93.5 % WT binding; Mean % WT Binding (human CD33 Y49H): 118 % WT binding; Mean % WT Binding (human CD33 Y49C): 44.7 % WT binding; Mean % WT Binding (human CD33 Y49I): 113 % WT binding; Mean % WT Binding (human CD33 T42K): 91.2 % WT binding; Mean % WT Binding (human CD33 Y50V): 108 % WT binding; Mean % WT Binding (human CD33 Y50N): 108 % WT binding; Mean % WT Binding (human CD33 Y50Q): 103 % WT binding; Mean % WT Binding (human CD33 Y50H): 92.2 % WT binding; Mean % WT Binding (human CD33 Y50D): 129 % WT binding; Mean % WT Binding (human CD33 F43V): 91.8 % WT binding
